Experiments:
[1] = target: calpain-3 (C129A) ΔNS&IS1 (human) (UniProt P20807); test: SEC-MALS
SEC-MALS = target: the molecule itself; test: SEC-MALS
SEC-SAXS = target: the molecule itself; test: SEC-SAXS
native gel or EMSA = target: the molecule itself; test: native gel or EMSA

Row | stoichiometry N (titin per calpain-3) [1] | Molecule | stoichiometry N (SEC-MALS) | stoichiometry N (SEC-SAXS) | stoichiometry N (native gel or EMSA)
1 | 2 | titin N2A region I81-I83 fragment (without His-tag) (domain or fragment) |  |  | 
2 |  | calpain-3 (C129A) ΔNS&IS1 (enzyme, human, UniProt P20807-1 1-821, looked up) MISRNFPIIGVKEKTFEQLHKKCLEKKVLYVDPEFPPDETSLFYSQKFPIQFVWKRPPEICENPRFIIDGANRTDICQGELGDAWFLAAIACLTLNQHLLFRVIPHDQSFIENYAGIFHFQFWRYGEWVDVVIDDCLPTYNNQLVFTKSNHRNEFWSALLEKAYAKLHGSYEALKGGNTTEAMEDFTGGVAEFFEIRDAPSDMYKIMKKAIERGSLMGCSIDTIIPVQYETRMACGLVRGHAYSVTGLDEVPFKGEKVKLVRLRNPWGQVEWNGSWSDRWKDWSFVDKDEKARLQHQVTEDGEFWMSYEDFIYHFTKLEICNLTADALQSDKLQTWTVSVNEGRWVRGCSAGGCRNFPDTFWTNPQYRLKLLEEDDDPDDSEVICSFLVALMQKNRRKDRKLGASLFTIGFAIYEVPKEMHGNKQHLQKDFFLYNASKARSKTYINMREVSQRFRLPPSEYVIVPSTYEPHQEGEFILRVFSEKRNLSEEVENTISVDRPVKKKKTKPIIFVSDRANSNKELGVDQESEEGKGKTSPDKQKQSPQPQPGSSDQESEEQQQFRNIFKQIAGDDMEICADELKKVLNTVVNKHKDLKTHGFTLESCRSMIALMDTDGSGKLNLQEFHHLWNKIKAWQKIFKHYDTDQSGTINSYEMRNAVNDAGFHLNNQLYDIITMRYADKHMNIDFDSFICCFVRLEGMFRAFHAFDKDGDGIIKLNVLEWLQLTMYA | 5 | 6 | 2
